This is an account of results in PMC4364404.

In the series the target is T1, NgTet1 (Naegleria gruberi, UniProt D2W6T1 1-321).
T1 sequence: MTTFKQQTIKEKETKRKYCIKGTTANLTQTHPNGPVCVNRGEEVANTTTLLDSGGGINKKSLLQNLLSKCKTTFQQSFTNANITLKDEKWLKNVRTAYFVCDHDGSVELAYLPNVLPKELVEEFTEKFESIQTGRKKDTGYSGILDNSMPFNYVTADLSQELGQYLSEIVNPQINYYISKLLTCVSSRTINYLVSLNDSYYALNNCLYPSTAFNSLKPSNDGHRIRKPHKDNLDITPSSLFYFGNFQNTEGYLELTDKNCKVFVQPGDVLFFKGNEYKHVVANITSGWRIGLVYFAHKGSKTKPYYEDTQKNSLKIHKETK
Kind of series: X-ray crystallography.

B1: 14-bp fully methylated CpG DNA (dsDNA)
DNA 1: TGGAACGCAATTCT
DNA 2: AGAATTGCGTTCCA
modifications: 5mC at position 6 of strand 1 and position 8 of strand 2
For B1, the binding result was “binds”.
